From article PMC2133002 (The Journal of Cell Biology, 1998)

T1: Golgi SNARE of 28 kD (GOS-28) (rat (endogenous in rat liver), UniProt Q62931 1-250)
T1 sequence: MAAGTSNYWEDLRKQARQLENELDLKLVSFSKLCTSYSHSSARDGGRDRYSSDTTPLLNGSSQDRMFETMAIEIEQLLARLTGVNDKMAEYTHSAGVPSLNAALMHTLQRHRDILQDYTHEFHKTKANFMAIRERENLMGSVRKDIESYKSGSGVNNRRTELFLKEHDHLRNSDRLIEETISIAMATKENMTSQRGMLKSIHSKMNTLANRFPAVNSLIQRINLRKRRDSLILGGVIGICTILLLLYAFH

T2: rbet1 (rat (endogenous in rat liver), UniProt Q62896 1-118)
T2 sequence: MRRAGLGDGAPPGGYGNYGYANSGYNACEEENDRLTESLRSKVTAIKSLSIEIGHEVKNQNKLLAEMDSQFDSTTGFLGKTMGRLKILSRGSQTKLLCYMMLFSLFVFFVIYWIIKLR

T3: membrin (rat (endogenous in rat liver), UniProt O35165 1-212)
T3 sequence: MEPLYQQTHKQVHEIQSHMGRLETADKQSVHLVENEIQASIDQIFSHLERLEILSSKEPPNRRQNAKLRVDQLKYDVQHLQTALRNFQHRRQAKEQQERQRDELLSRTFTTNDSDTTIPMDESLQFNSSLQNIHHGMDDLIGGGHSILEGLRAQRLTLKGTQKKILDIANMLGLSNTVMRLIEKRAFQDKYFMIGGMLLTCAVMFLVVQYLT

B1: syntaxin 5, 41-kD isoform (natural protein)
chain: MIPRKRYGSKNTDQGVYLGLSKTQVLSPATAINSSSDIAPLPTPVALVPSPPDTMSCRDRTQEFLSACKSLQSRQNGIQTNKPALHATRQCSEFTLMARRIGKDLSNTFAKLEKLTILAKRKSLFDDKAVEIEELTYIIKQDINSLNKQIAQLQDFVRAKGSQSGRHLQTHSNTIVVSLQSKLASMSNDFKSVLEVRTENLKQQRNRREQFSRAPVSALPLAPNNLGGGPIVLGGESRASRDVAIDMMDPRTSQQLQLIDEQDSYIQSRADTMQNIESTIVELGSIFQQLAHMVKEQEETIQRIDENVLGAQLDVEAAHSEILKYFQSVTSNRWLMVKIFLILIVFFIIFVVFLA
B2: syntaxin 5, 34-kD isoform (natural protein)
chain: MSCRDRTQEFLSACKSLQSRQNGIQTNKPALHATRQCSEFTLMARRIGKDLSNTFAKLEKLTILAKRKSLFDDKAVEIEELTYIIKQDINSLNKQIAQLQDFVRAKGSQSGRHLQTHSNTIVVSLQSKLASMSNDFKSVLEVRTENLKQQRNRREQFSRAPVSALPLAPNNLGGGPIVLGGESRASRDVAIDMMDPRTSQQLQLIDEQDSYIQSRADTMQNIESTIVELGSIFQQLAHMVKEQEETIQRIDENVLGAQLDVEAAHSEILKYFQSVTSNRWLMVKIFLILIVFFIIFVVFLA

Key:
Experiment in all cases: co-IP
[1] = molecular target: rbet1 (rat (endogenous in rat liver)) (UniProt Q62896)
[2] = molecular target: membrin (rat (endogenous in rat liver)) (UniProt O35165)
[3] = molecular target: T1, Golgi SNARE of 28 kD (GOS-28)
rbet1 = molecular target: T2, rbet1
membrin = molecular target: T3, membrin

Molecule | efficiency of coprecipitation (arbitrary units) [1] | efficiency of coprecipitation [3] [arbitrary units] | efficiency of coprecipitation (rbet1) [arbitrary units] | efficiency of coprecipitation (membrin) [arbitrary units] | other results
rsec22b (from UniProt Q4KM74 1-215) (natural protein) | 247 |  |  |  | 
syntaxin 5, 31-kD form (degradation product of the 41-kD isoform) (domain or fragment) | 139 |  |  |  | 
rbet1 (from UniProt Q62896 1-118) (natural protein) |  |  |  |  | efficiency of coprecipitation (arbitrary units) [2]: 115
membrin (from UniProt O35165 1-212) (natural protein) | 308 |  |  |  | 
B1 |  | 30 | 129 | 25 | 
B2 |  | 134 | 128 | 37 | 
